# Experimental data taken from US20110044911A1.
# Biological target: receptors for CRF on murine pituitary tumor cell line AtT-20 (murine)
# Experiment: cell-based or functional assay
substance,measurement,value
CRF-conjugated dextran-coated and maleimide surface-modified magnetonanoparticles (peptide),Production of c-AMP (nM),2 fold
same,fold decrease in Production of c-AMP (nM),10 fold
